{"source": "paper PMC2757719", "about": "“EBNA1-Mediated Recruitment of a Histone H2B Deubiquitylating Complex to the Epstein-Barr Virus Latent Origin of DNA Replication” (PLoS Pathogens, 2009)", "key": {"[1]": {"molecular_target": "T1, USP7 (ubiquitin specific protease USP7), full length (human, UniProt Q93009 1-1102)", "T1 construct": "Ubiquitin specific protease USP7 (HAUSP), human, full length; calculated mass printed as 130 Kd (135 kDa in the introduction); Monomeric by glycerol gradient sedimentation; also called HAUSP; Herpesvirus Associated Ubiquitin Specific Protease", "T1 sequence (Q93009 whole entry)": "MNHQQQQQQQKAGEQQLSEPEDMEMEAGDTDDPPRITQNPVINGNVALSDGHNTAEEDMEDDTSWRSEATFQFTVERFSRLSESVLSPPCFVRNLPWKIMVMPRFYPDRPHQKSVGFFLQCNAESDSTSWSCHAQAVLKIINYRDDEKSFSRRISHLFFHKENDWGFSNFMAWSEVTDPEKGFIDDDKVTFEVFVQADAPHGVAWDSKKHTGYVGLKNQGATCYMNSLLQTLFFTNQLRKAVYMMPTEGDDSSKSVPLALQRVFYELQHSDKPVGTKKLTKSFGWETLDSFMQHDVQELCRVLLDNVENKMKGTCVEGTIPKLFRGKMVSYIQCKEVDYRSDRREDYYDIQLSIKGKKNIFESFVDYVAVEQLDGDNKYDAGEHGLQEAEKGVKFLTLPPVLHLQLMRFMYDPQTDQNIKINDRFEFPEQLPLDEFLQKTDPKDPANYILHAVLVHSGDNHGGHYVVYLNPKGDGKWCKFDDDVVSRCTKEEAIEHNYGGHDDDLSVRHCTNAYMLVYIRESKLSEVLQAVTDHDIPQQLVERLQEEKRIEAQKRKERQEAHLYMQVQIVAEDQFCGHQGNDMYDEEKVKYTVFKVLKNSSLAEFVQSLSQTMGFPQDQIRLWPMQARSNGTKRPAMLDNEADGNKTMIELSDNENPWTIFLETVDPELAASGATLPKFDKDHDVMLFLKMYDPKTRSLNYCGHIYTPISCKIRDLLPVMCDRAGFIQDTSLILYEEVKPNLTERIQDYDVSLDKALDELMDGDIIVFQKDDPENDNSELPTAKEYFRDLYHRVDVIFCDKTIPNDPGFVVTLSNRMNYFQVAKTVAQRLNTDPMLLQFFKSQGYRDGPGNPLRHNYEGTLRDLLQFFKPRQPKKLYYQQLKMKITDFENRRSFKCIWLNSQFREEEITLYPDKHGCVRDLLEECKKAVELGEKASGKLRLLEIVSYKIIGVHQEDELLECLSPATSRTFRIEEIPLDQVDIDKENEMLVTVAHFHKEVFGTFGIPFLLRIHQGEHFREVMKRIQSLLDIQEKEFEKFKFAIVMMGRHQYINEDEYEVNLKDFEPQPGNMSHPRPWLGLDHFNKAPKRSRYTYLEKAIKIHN", "assay": "co-sedimentation; glycerol gradient sedimentation: 50 µg USP7 and 25 µg GMPS, alone or mixed 1 h at room temperature, on 10%–20% glycerol gradients in 50 mM HEPES pH 7.9, 200 mM NaCl, 0.5 mM EDTA; SW41 34,000 rpm, 18 h, 4°C; markers aldolase 158 kDa, catalase 232 kDa", "settings": "both partners purified"}, "[2]": {"molecular_target": "the molecule itself", "assay": "co-sedimentation; glycerol gradient sedimentation: 50 µg USP7 and 25 µg GMPS, alone or mixed 1 h at room temperature, on 10%–20% glycerol gradients in 50 mM HEPES pH 7.9, 200 mM NaCl, 0.5 mM EDTA; SW41 34,000 rpm, 18 h, 4°C; markers aldolase 158 kDa, catalase 232 kDa"}, "[3]": {"molecular_target": "T1, USP7 (ubiquitin specific protease …)", "assay": "native gel or EMSA; EBNA1 fragment titrated, preincubated with 10 pmols USP7 or USP7-NTD 10 min at RT before 10 fmoles 32P-labelled DS site 1 DNA (or EBNA1-DNA preformed, then rising USP7, Figure 2C); 20 mM Tris pH 7.5, 200 mM NaCl, 1 µg salmon sperm DNA, 20 µl; 10% polyacrylamide gel; read-out: supershift of the EBNA1-DNA complex", "settings": "both partners purified"}}}
{"binder": "GMP synthetase (GMPS), His-tagged, recombinant (enzyme, human GMP synthetase, full-length cDNA (in pOTB7) amplified from the start codon to the stop codon and cloned into pFastBac HT B; mass printed as 77 Kda; also called guanosine 5′ monophosphate synthetase; His-tagged GMPS; source: High Five insect cells infected with baculovirus, purified (nickel resin)) not shown", "values": [{"measurement": "stoichiometry N", "setting": "[1]", "result": 1}, {"measurement": "stoichiometry N", "setting": "[2]", "result": 2}]}
{"binder": "EBNA1 truncation mutant 395–641 (domain or fragment, EBNA1 of Epstein-Barr virus, amino acids 395-641, amplified from pc3oriPEBNA1; also called EBNA1_(395–641); EBNA_(395–641); source: E. coli BL21 pLysS (pET15b), purified (Ni-NTA Agarose)) PRRPPPGRRPFFHPVGEADYFEYHQEGGPDGEPDVPPGAIEQGPADDPGEGPSTGPRGQGDGGRRKKGGWFGKHRGQGGSNPKFENIAEGLRALLARSHVERTTDEGTWVAGVFVYGGSKTSLYNLRRGTALAIPQCRLTPLSRLPFGMAPGPGPQPGPLRESIVCYFMVFLQTHIFAEVLKDAIKDLVMTKPAPTCNIRVTVCSFDDGVDLPPWFPPMVEGAAAEGDDGDDGDEGGDGDEGEEGQE", "values": [{"measurement": "binding result", "setting": "[3]", "result": "binds"}]}
